# According to patent US20100137221A1, “PEPTIDES THAT INTERACT WITH TOPOISOMERASE I AND METHODS THEREOF” (UNIVERSITY UTAH RESEARCH FOUNDATION, priority 2007, published 2010):
# “Also recorded” adds a separate entry of the source. Like-named read-outs stand apart in the source and are kept apart here. No end group written: not given here.
# T1: top1 (Homo sapiens, UniProt P11387)
# T1 sequence (P11387 1-765): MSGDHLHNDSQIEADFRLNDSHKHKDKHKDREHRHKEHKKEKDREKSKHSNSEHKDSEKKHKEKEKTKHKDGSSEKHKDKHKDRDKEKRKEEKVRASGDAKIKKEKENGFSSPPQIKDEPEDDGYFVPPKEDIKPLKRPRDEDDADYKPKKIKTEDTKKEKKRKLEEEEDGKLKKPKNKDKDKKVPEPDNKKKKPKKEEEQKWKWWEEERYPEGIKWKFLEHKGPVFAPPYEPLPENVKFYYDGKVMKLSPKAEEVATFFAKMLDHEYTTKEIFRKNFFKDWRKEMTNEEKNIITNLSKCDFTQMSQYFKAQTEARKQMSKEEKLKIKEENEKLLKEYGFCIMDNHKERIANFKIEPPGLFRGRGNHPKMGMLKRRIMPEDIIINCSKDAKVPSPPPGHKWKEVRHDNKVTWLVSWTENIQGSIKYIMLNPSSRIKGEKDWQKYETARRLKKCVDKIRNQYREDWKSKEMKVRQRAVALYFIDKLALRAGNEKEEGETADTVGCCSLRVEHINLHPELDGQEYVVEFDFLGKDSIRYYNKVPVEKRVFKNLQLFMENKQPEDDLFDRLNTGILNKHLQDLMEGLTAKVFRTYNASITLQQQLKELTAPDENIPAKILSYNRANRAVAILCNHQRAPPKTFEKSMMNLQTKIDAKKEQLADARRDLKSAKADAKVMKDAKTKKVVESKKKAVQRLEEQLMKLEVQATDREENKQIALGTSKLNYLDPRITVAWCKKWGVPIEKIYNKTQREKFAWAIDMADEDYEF
# T2: 100 kDa top1 (Homo sapiens, UniProt P11387)
# T2 construct: made in house; host or cells: Sf9 insect cells (baculovirus) or human placenta
# T2 sequence (P11387 1-765): T1 sequence (P11387 1-765)
# T3: human topoisomerase I (human, UniProt P11387 1-765, limits assumed)
# T3 construct: also called top1; top 1
# T3 sequence (looked up): T1 sequence (P11387 1-765)
# T4: T1BP2
# T4 chain: SAYAATVRGPLSSAS
# B1: T1BP5 (peptide)
# peptide: EGQFTFPRGASE
# notes: 12-mer, truncated due to a stop codon; also called CPP6; EGQFTFPRGASE
# B2: human topoisomerase I (protein)
# chain: T1 sequence (P11387 1-765)
# B3: T1BP2 (peptide)
# peptide: SAYAATVRGPLSSAS
# notes: Coupled to a CM5 chip for SPR; also called T1PB2; CPP3
# Assays:
# top1 [1] = molecular target: T1, top1; test: Biosensor binding specificity, top1 versus topoisomerase II and tubulin over T1BP2 surface; set-up: made in house; host or cells: Sf9 insect cells (baculovirus) or human placenta; conditions: 8.0 nM of each protein injected over T1BP2 channel
# Experimental: (§1) These top1 experiments were evaluated with BIAevaluation Software 3.1 using Langmuir Kinetics to model the interaction. The accuracy of the fit to the model is illustrated by dashed lines representing actual data and narrow lines representing the fitted curves.
# top1 [2] = molecular target: T1, top1; conditions: surface plasmon resonance
# top1 [3] = molecular target: T1, top1; test: DNA cleavage complex assay with 9AC; type: biochemical; set-up: made in house; host or cells: Sf9 insect cells (baculovirus) or human placenta
# Experimental: Top1 relaxation/cleavage activity assays: Peptides were assayed for their ability to interfere with or enhance relaxation of supercoiled DNA mediated by 100 kDa top1. The top1 and pBR322 were combined in a top1-reaction buffer (150 mM KCl, 12 mM MgCl2, 2 mM EDTA, 50 mM Tris HCl pH 7.5) at 37° C. for 30 minutes with 1 μM peptide. The 20 μl reactions were stopped with 1.0 μl of 1% SDS. Digestion of protein was performed by addition of 1.0 μg proteinase K for 30 minutes at 37° C., loaded with 5 μl of a standard 5×bromphenol blue/glycerol loading buffer and run in an 0.8% agarose gel in TAE (0.04 M Tris-acetate and 1.0 mM EDTA). […] The reactions were incubated for 30 minutes at 30° C. and then treated with 1 μl of 1 mg/ml proteinase K in 0.05% SDS for an additional 30 minutes at 37° C. to transform the 9AC-top1-DNA complexes into nicked DNA. This was followed by electrophoresis in an 0.8% agarose-TAE gel containing ethidium bromide. A control set of experiments and log serial dilutions of peptide were examined for each peptide. Percent cleavage was determined by liquid scintillation counting of excised bands using the method described by Marshall et al. (Marshall 2003).
# 100 kDa top1 = molecular target: T2, 100 kDa top1; test: top1-mediated DNA relaxation assay (supercoiled pBR322); type: biochemical; conditions: 1 μM peptide
# Experimental: Top1 relaxation/cleavage activity assays: Peptides were assayed for their ability to interfere with or enhance relaxation of supercoiled DNA mediated by 100 kDa top1. The top1 and pBR322 were combined in a top1-reaction buffer (150 mM KCl, 12 mM MgCl2, 2 mM EDTA, 50 mM Tris HCl pH 7.5) at 37° C. for 30 minutes with 1 μM peptide. The 20 μl reactions were stopped with 1.0 μl of 1% SDS. Digestion of protein was performed by addition of 1.0 μg proteinase K for 30 minutes at 37° C., loaded with 5 μl of a standard 5×bromphenol blue/glycerol loading buffer and run in an 0.8% agarose gel in TAE (0.04 M Tris-acetate and 1.0 mM EDTA). DNA cleavage assays were performed in 20 μl volumes of reaction buffer (50 mM Tris-HCl (pH 7.5), 100 mM KCl, 10 mM MgCl2 0.5 mM EDTA, 0.2 mg/ml BSA), 500 ng of radiaolabeled (^3H thymidine) supercoiled rf (replicative form) M13 mp 19 DNA and 112 ng of top1. The reactions were incubated for 30 minutes at 30° C. and then treated with 1 μl of 1 mg/ml proteinase K in 0.05% SDS for an additional 30 minutes at 37° C. to transform the 9AC-top1-DNA complexes into nicked DNA. This was followed by electrophoresis in an 0.8% agarose-TAE gel containing ethidium bromide. […] Percent cleavage was determined by liquid scintillation counting of excised bands using the method described by Marshall et al. (Marshall 2003).
# human topoisomerase I [4] = molecular target: T3, human topoisomerase I; test: SPR (BIAcore), 100 kDa top1 applied at 1, 2.5, 5, 10 and 20 nM to the CPP4 flow cell, global fit [right panel]
# Experimental: (§2) Top 1 was applied to flow cells in 1, 2.5, 5, 10 and 20 nM concentrations. The overlaying curves represent the actual data for a given concentration of top 1 and the “fit” curves. Data were fit using the BIAeval 3000 global fitting software.
# human topoisomerase I [5] = molecular target: T3, human topoisomerase I; test: phage display biopanning against top1-DNA-9AC, analytical titering against top1
# Experimental: Phage display: Phage display was performed as described by Smith (Parmley 1989). Briefly, top1 was first biotinylated with a biotin derivative containing a spacer engineered to reduced steric interference (Pierce EZ-Link Biotin-PEO-Amine). The reaction was performed at a 5:1 molar ratio of biotin:top1 in 10 mM HEPES (pH 8.2) buffered 500 mM NaCl. The unreacted biotin was removed by gel filtration in a Biospin 30 column (BioRad) and biotinylated top1 was assayed for activity using a pull down method with streptavidin coated beads. The biotinylated top1 maintained catalytic activity. For phage display, 20 μg biotinylated top1 was reacted with a mixture of pBR322 and 9AC and 20 μg was applied to a 30 mm plastic petri dish coated with 10 μg of neutravidin (Pierce). The dish was then blocked with 3.0% bovine serum albumin, and 10 μl of a 10⁹/μl titer phage library in 100 μl TBS-0.05% Tween was added. Phage were allowed to associate with gentle rocking for 2 hours at 4° C., and then washed repeatedly over 2 hours at 4° C. with buffered saline containing 0.1% Tween. […]
# Analytical titering: Ten μl of amplified phage clones (approximately 10¹² cfu) were incubated in 50 nM top1 for one hour at 4° C. on a rocker. […] Competent E. coli were added directly to the washed plates and the output assessed by counting a 10⁻⁶ dilution of the culture on tetracycline plates (FIG. 1). […]
# T1BP2 = molecular target: T4, T1BP2
# human topoisomerase I [6] = molecular target: T3, human topoisomerase I; test: SPR (BIAcore), 100 kDa top1 applied at 1, 2.5, 5, 10 and 20 nM to the CPP1 flow cell, global fit [left panel]
# Experimental: as §2
# human topoisomerase I [7] = molecular target: T3, human topoisomerase I; test: SPR (BIAcore 2000), T1BP2 on CM5 chip, top1 as analyte, Langmuir model
# Experimental: (§3) Binding analysis: The binding analysis of the peptides was performed on a BIAcore 2000 instrument. A four channel CM5 sensor chip was derivatized with three top1 binding peptides (T1BPs 1, 2 and 4) and a control surface left blank. Catalytically active top1 was used as the mobile or analyte phase and diluted in 150 mM NaCl, 30 mM HEPES, 0.05% P20 and injected at various concentrations (8.0, 4.0, 2.0, 1.0 and 0.4 nM) through the instrument's microfluidics sample handling system at a flow rate of 30 μl/minute. With each injection of a particular concentration of top1, association and dissociation data for three peptides were generated. Binding constants were determined using the BIAevaluation 2.1 software.
# T1BP2 affinity for top1: T1BP2 had remarkable affinity for top1 when assayed by surface plasmon resonance (FIG. 2a).
# human topoisomerase I [8] = molecular target: T3, human topoisomerase I; test: SPR (BIAcore), T1BP2 on the chip, top1 as analyte, Langmuir model [cont'd) B]
# Experimental: as §1, §3
# human topoisomerase I [9] = molecular target: T3, human topoisomerase I; test: fluorescence polarization, human placental 91 kDa top1 titrated into 500 nM fluorescein-labeled T1BP1; the concentration is that of top1
molecule,measurement,setting,value
"SAYAATVRGPLSSAS [T1BP2, SAYAATVRGPLSSAS]",binding specificity for top1 verses topoisomerase II and tubulin,top1 [1],specificity for top1
same,affinity for top1 (in words),top1 [2],high nanomolar affinity
same,affinity for top1 (in words),top1 [2]; listed as T1PB2,mid-nanomolar affinity
same,effect on cleavage (in words),"top1 [3]; 0.45 μM 9AC, 20 ng top1",increase in cleavage at all but one concentration
same,increase in cleavage complex formation,"top1 [3]; 0.45 μM and 0.9 μM 9AC, through the range of peptide concentrations tested",approximately 50%
same,effect on top1-mediated DNA relaxation,100 kDa top1,slight ability to inhibit top1-mediated relaxation; also recorded: Inhibition of top1 relaxation (slight increase in supercoiled DNA remaining)
DRVPLVHVIFNSFGY (also called CPP4) [T1BP3],binding result,human topoisomerase I [4],binds
B1,binding result,human topoisomerase I [5],binds
B2,cleavage complex formation (top1-DNA-9AC cleavage assay),T1BP2,T1BP2 increased cleavage complex formation approximately 50%
LAVRRYALGNGYDWS [CPP1],binding result,human topoisomerase I [6],binds
B3,Kd,human topoisomerase I [7],665 nM
same,Ka,human topoisomerase I [8],1.5e+06 M⁻¹
same,kd (s-1) (observed) at [Top1] 0.4 nM,human topoisomerase I [8],0.0028 s⁻¹
same,kd (s-1) (observed) at [Top1] 1.0 nM,human topoisomerase I [8],0.0028 s⁻¹
same,kd (s-1) (observed) at [Top1] 2.0 nM,human topoisomerase I [8],0.00281 s⁻¹
same,kd (s-1) (observed) at [Top1] 4.0 nM,human topoisomerase I [8],0.00282 s⁻¹
same,kd (s-1) (observed) at [Top1] 8.0 nM,human topoisomerase I [8],0.00283 s⁻¹
same,koff,human topoisomerase I [8],0.0028 s⁻¹
same,kon,human topoisomerase I [8],4210 M⁻¹ s⁻¹
RNQGPVKMVFPIAPS (also called CPP5) [T1BP4],binding result,human topoisomerase I [5],binds
SSQVVGVPQLMQSSP (also called CPP2) [T1BP1],EC50 (read off the curve),human topoisomerase I [9],~100 nM
